Columns and labels:
hBAT-SVF clones = assay: Clonal analysis: UCP1-luciferase response to BMP7 pretreatment; type: cell-based, human
Method: (§1) FIG. 8 depicts clonal analysis of human brown and white fat progenitors. Specifically, the strategy of clonal analysis of hWAT-SVF and hBAT-SVF progenitors is shown as a dendrogram. 152 clones from hWAT-SVF and 128 clones from hBAT-SVF were derived by limiting dilution from 4 subjects. Adipogenic capacity was determined by Nile red staining and UCP1 level was determined by luciferase activity on day 18. Detailed selection criteria are described in FIGS. 9 and 10. Selected highly adipogenic clones (adipogenic++) were pre-treated with 3.3 nM BMP7 for 6 days and then differentiated into mature adipocytes in a 96-well plate. Luciferase activity was measured on day 18 and divided into different levels (negative, Neg; low; medium, Med; high) after normalized to protein content. The positive response (+) to BMP7 pretreatment was defined by more than 1.5-fold increase of luciferase activity between BMP7-pretreated and vehicle groups.
(§2) Immortalized progenitor cells were plated and grown in DMEM/H medium supplemented with 10% FBS (day 0). For adipocyte differentiation, cell were grown for 6 days until reaching confluence (day 6), and then treated with the adipogenic induction medium as described above for 12 days (termed as day 18). To further stimulate thermogenic program, fully differentiated cells were incubated with 10 μM forskolin for 4 h. For BMPs and FGF21 pre-treatment, recombinant BMP7 (3.3 nM), BMP8 (3.3 nM), or FGF21 (50 nM) were added to undifferentiated cells in medium containing insulin (0.5 μM), T3 (2 nM) and 2% FBS for 6 days followed by adipogenic induction for 12 days. For BMPs and FGF21 post-treatment, fully differentiated adipocytes at day 18 were treated with recombinant BMP7 (3.3 nM), BMP8 (3.3 nM), or FGF21 (50 nM) in medium containing insulin (0.5 μM), T3 (2 nM) and 2% FBS for 2 days.
(§3) In vitro luciferase assays were performed using luciferase assay kits (Promega, Madison, Wis.) according to the manufacturer's instructions. Remove culture medium from differentiated adipocytes and wash cells in PBS. Dispense an appropriate volume of 1× lysis reagent (Passive Lysis Buffer) into each culture well. Scrape attached cells from the wells, and transfer the cell lysates into white 96-well plate (Corning Inc., Tewksbury, Mass.) for detection of the bioluminescence signal using luminometer plate reader (BioTek Instruments, Inc., Winooski, Vt.). Use a reagent injector to dispense 100 μL of Luciferase assay buffer with substrate and 100 μL of Stop & Glo Reagent. And perform a 2-second pre-measurement delay, followed by a 10-second measurement period for each reporter assay. Luciferase activity data were normalized to protein content.
(§4) To derive subclones of immortalized human white and brown progenitors with hUCP1-promoter-Luc/GFP reporter, limiting dilution of cells into 96-well plates was performed as previously described (Tchkonia, T., et al. Diabetes 55, 2571-2578, 2006). Briefly, cells were plated at 50 cells/96-well plate in DMEM/H containing 10% FBS. After 2 weeks, colonies were evident. Cells at approximately 80% confluence were trypsinized and further propagated in 48-well, then 12-well and finally 6-well plate. 152 clonal lines originated from neck superficial fat depot and 128 clonal lines from deep fat were selected for adipogenic potential after induction. The highly adipogenic clonal lines were selected for further analysis (67 clonal white fat progenitor lines; 90 clonal brown fat progenitor lines).

hWAT-SVF clones = assay: as above; type: cell-based, human; conditions: for clones UCP1(+), BMP7 Resp(+) / clones UCP1 (−), BMP7 Resp(+) / clones UCP1(−), BMP7 Resp(−): hWAT-SVF clones
Method: as §1, §2, §3, §4

B1: BMP7: Recombinant human BMP7, an inducer of brown adipogenesis (protein, UniProt P18075 293-431, looked up)
Bone morphogenetic protein 7: STGSKQRSQNRSKTPKNQEALRMANVAENSSSDQRQACKKHELYVSFRDLGWQDWIIAPEGYAAYYCEGECAFPLNSYMNATNHAIVQTLVHFINPETVPKPCCAPTQLNAISVLYFDDSSNVILKKYRNMVVRACGCH
B1 was tested, and the “clones that could respond to BMP7 stimulation” value (hBAT-SVF clones; hBAT-SVF clones from Subject 2 and Subject 3) was “more than 60%”, the “clones UCP1(+), BMP7 Resp(+)” value (hBAT-SVF clones; hBAT-SVF clones, Subject 1) was 10/41 and the “clones UCP1(+), BMP7 Resp(−)” value (hBAT-SVF clones; hBAT-SVF clones, Subject 1) was 29/41. For the same molecule, the “clones UCP1(+), BMP7 Resp(−), percent” value (hBAT-SVF clones; hBAT-SVF clones, Subject 1) was “(71%)”, the “clones UCP1(−), BMP7 Resp(−)” value (hBAT-SVF clones; hBAT-SVF clones, Subject 1) was 2/41 and the “clones UCP1(+), BMP7 Resp(+)” value (hBAT-SVF clones; hBAT-SVF clones, Subject 2) was 10/15. The “clones UCP1(+), BMP7 Resp(+), percent” value (hBAT-SVF clones; hBAT-SVF clones, Subject 2) was “(67%)”, the “clones UCP1(+), BMP7 Resp(−)” value (hBAT-SVF clones; hBAT-SVF clones, Subject 2) was 5/15 and the “clones UCP1(−), BMP7 Resp(−)” value (hBAT-SVF clones; hBAT-SVF clones, Subject 2) was 0/15. For the same molecule, the “clones UCP1(+), BMP7 Resp(+)” value (hBAT-SVF clones; hBAT-SVF clones, Subject 3) was 9/15, the “clones UCP1(+), BMP7 Resp(+), percent” value (hBAT-SVF clones; hBAT-SVF clones, Subject 3) was “(60%)” and the “clones UCP1(+), BMP7 Resp(−)” value (hBAT-SVF clones; hBAT-SVF clones, Subject 3) was 3/15. The “clones UCP1(−), BMP7 Resp(−)” value (hBAT-SVF clones; hBAT-SVF clones, Subject 3) was 3/15, the “clones UCP1(+), BMP7 Resp(+)” value (hBAT-SVF clones; hBAT-SVF clones, Subject 4) was 5/19 and the “clones UCP1(+), BMP7 Resp(−)” value (hBAT-SVF clones; hBAT-SVF clones, Subject 4) was 14/19. For the same molecule, the “clones UCP1(+), BMP7 Resp(−), percent” value (hBAT-SVF clones; hBAT-SVF clones, Subject 4) was “(74%)”, the “clones UCP1(−), BMP7 Resp(−)” value (hBAT-SVF clones; hBAT-SVF clones, Subject 4) was 0/19 and the “clones that could be induced by BMP7 pretreatment” value (hBAT-SVF clones; hBAT-SVF clones, all subjects, response = more than 1.5-fold increase of luciferase activity) was “up to 37%”. For the same molecule, the “response to BMP7 pretreatment” value (hBAT-SVF clones; majority of the hBAT-SVF clones from Subject 1 and Subject 4) was “not responsive”, the “clones UCP1(+), BMP7 Resp(+)” value (hWAT-SVF clones; Subject 1) was 0/32 and the “clones UCP1 (−), BMP7 Resp(+)” value (hWAT-SVF clones; Subject 1) was 0/32. For the same molecule, the “clones UCP1(−), BMP7 Resp(−)” value (hWAT-SVF clones; Subject 1) was 32/32, the “clones UCP1(+), BMP7 Resp(+)” value (hWAT-SVF clones; Subject 2) was 0/20 and the “clones UCP1 (−), BMP7 Resp(+)” value (hWAT-SVF clones; Subject 2) was 0/20. The “clones UCP1(−), BMP7 Resp(−)” value (hWAT-SVF clones; Subject 2) was 20/20, the “clones UCP1(+), BMP7 Resp(+)” value (hWAT-SVF clones; Subject 3) was 1/12 and the “clones UCP1 (−), BMP7 Resp(+)” value (hWAT-SVF clones; Subject 3) was 0/12. The “clones UCP1(−), BMP7 Resp(−)” value (hWAT-SVF clones; Subject 3) was 11/12, the “clones UCP1(+), BMP7 Resp(+)” value (hWAT-SVF clones; Subject 4) was 0/3 and the “clones UCP1 (−), BMP7 Resp(+)” value (hWAT-SVF clones; Subject 4) was 0/3. The “clones UCP1(−), BMP7 Resp(−)” value (hWAT-SVF clones; Subject 4) was 3/3 and the “clones that could respond to BMP7 pretreatment” value (hWAT-SVF clones; highly adipogenic hWAT-SVF clones, response = more than 1.5-fold increase of luciferase activity) was 1%.

From patent US11078259B2, “Methods and compositions for promoting thermogenic potential” (Joslin Diabetes Center, Inc., priority 2015, dated 2021)
